The values that follow come from patent US20250066499A1 (SUNSHINE GUOJIAN PHARMACEUTICAL SHANGHAI, published 2025).

Assay [1] deals with T1, CD73-ND-L133A (human, UniProt P21589 27-317).
T1 construct: Alanine mutant of CD73-ND
T1 sequence: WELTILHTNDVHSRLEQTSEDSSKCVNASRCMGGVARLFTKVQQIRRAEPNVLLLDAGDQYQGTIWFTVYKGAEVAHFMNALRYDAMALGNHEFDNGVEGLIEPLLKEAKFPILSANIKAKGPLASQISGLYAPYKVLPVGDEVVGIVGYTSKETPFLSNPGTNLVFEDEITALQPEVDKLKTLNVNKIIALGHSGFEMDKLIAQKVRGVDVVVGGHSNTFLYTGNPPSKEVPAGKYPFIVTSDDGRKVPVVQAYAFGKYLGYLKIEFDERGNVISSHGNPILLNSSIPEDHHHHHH
Description: ELISA, high plateau value (OD 450 nm). As to the method: (§1) The ELISA plates were coated with SA protein diluted to 1.5 μg/mL in coating buffer (50 mM carbonate coating buffer, pH 9.6) and incubated overnight at 4° C. The supernatant was discarded, and the plates were washed three times with PBST. Then, 5% skimmed milk powder prepared with PBS was added for blocking and the plates were incubated for 2 h at 37° C. After washing the plates once with PBST, CD73-biotin protein (prepared by biotinylating CD73-His protein according to the EZ-Link NHS-Biotin Reagent instructions) was diluted to 0.5 μg/mL and added at 100 μL/well for incubation at room temperature for 1 h. The plates were washed three times with PBST, and the prepared murine-derived monoclonal antibodies against human CD73 were serially diluted with 1% BSA buffer prepared with PBST and added to the ELISA plates at 100 μl/well. The plates were incubated at 37° C. for 1 h. After washing the plates three times with PBST, HRP-labeled goat anti-mouse IgG secondary antibody was added and the plates were incubated for 30 min at 37° C. After washing the plates three times with PBST, the residual droplets were patted dry on absorbent paper as much as possible. Then, 100 μl of TMB color developing solution was added to each well, and the plates were incubated in the dark at room temperature for 5 min for color development. Subsequently, 50 μl of 2M H₂SO₄ stop solution was added to each well to terminate the substrate reaction. The OD values were read at 450 nm using a multimode microplate reader to analyze the binding ability of the tested antibodies to the target antigen human CD73-His.
(§2) Referring to the experimental method in Example 3, the affinity of 48A11-HuV33 for various mutant proteins of CD73-ND was determined. The SA protein was diluted to 1 μg/mL for coating the ELISA plates, and the biotinylated CD73 protein (CD73-biotin) was used at a concentration of 0.1 μg/mL.
On the technique in general: ELISA stands for enzyme-linked immunosorbent assay.

Assay [2] deals with T2, CD73-ND-P134A (human, UniProt P21589 27-317).
T2 construct: Alanine mutant of CD73-ND
T2 sequence: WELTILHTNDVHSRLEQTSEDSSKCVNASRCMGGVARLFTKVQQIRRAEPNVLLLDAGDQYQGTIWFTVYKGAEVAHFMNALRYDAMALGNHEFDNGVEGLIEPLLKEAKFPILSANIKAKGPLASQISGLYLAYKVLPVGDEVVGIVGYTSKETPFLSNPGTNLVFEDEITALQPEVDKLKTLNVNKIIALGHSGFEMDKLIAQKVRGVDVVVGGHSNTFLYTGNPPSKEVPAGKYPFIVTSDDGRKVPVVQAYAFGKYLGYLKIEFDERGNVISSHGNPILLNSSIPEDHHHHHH
Description: ELISA, high plateau value (OD 450 nm). As for the experimental part: as §1, §2

The target in assay [3] is T3, CD73-ND-his (human, UniProt P21589 27-317).
T3 construct: Biotinylated and captured on streptavidin in the ELISA
T3 sequence: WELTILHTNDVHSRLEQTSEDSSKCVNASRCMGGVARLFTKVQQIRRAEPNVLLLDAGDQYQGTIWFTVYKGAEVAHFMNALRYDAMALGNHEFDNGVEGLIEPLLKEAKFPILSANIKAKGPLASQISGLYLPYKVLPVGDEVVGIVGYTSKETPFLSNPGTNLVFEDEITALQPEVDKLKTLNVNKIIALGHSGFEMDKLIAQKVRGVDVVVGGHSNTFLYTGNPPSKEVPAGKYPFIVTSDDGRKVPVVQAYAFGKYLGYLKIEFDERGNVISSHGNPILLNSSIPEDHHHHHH
Description: ELISA; decline multiple of EC50 against CD73-ND. As to the method:
as §1, §2

The target of assay [4] is T4, CD73-ND-E143A (human, UniProt P21589 27-317).
T4 construct: Alanine mutant of CD73-ND
T4 sequence: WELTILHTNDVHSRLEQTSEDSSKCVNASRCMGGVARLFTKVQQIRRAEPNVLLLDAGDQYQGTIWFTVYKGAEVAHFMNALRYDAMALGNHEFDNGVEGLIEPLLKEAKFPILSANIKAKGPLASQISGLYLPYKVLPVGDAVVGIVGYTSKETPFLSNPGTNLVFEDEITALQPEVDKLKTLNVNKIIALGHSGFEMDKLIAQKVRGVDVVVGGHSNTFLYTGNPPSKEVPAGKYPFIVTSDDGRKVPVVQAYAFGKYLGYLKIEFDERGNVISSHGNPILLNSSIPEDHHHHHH
Description: ELISA; decline multiple of EC50 against CD73-ND. As for the experimental part: as §1, §2

Assay [5] deals with T5, CD73-ND-T183A (human, UniProt P21589 27-317).
T5 construct: Alanine mutant of CD73-ND
T5 sequence: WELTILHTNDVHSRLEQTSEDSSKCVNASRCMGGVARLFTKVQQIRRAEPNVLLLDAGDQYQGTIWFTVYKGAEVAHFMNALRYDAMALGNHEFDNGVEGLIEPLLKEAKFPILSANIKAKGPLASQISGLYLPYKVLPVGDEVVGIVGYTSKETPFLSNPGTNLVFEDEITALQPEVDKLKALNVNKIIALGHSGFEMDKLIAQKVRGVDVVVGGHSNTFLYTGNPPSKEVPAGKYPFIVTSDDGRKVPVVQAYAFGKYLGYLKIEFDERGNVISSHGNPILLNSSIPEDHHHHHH
In words: ELISA; decline multiple of EC50 against CD73-ND. As to the method:
as §1, §2

Assay [6] deals with T6, CD73-ND-N185A (human, UniProt P21589 27-317).
T6 construct: Alanine mutant of CD73-ND
T6 sequence: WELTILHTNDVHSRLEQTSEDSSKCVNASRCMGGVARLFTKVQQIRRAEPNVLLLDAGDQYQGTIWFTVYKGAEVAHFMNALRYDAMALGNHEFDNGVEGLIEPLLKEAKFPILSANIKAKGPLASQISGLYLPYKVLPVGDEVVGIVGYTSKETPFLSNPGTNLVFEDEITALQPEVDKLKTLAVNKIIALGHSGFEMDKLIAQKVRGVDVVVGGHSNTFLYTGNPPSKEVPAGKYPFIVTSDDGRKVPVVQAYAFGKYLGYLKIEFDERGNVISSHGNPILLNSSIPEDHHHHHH
In words: ELISA; decline multiple of EC50 against CD73-ND. As to the method:
as §1, §2

B1: 48A11-HuV33 (antibody, human IgG4, V domains shown)
VH: QVQLVQSGAEVKKPGASVKVSCKASGYTFTSYWMHWVRQAPGQGLEWIGEINPSIGRTNYNEKFKSRVTLTRDTSTSTAYMELSSLRSEDTAVYYCARRVYGTMDYWGQGTLVTVSS
VL: DIQMTQSPSSLSASVGDRVTITCKASQDINSYLSWFQQKPGKSPKLLIYRANIWVDGVPSRFSGSGSGQDYTFTISSLQPEDIATYYCLQYDELYTFGQGTKVEIK
notes: Humanized
B1: the Top in assay [1] was found to be 0.922; in assay [2], 1.97. The “Ratio(EC50)” value in assay [3] turned out to be 1 fold; in assay [4], 1.4 fold; in assay [5], 1.4 fold; in assay [6], 1.6 fold.
